The target in experiment [1] is recombinant human Fc gamma receptor CD16a 158V (FcRγIIIa) (human) (UniProt P08637).
The target in experiment [2] is recombinant human Fc gamma receptor CD16b (FcRγIIIb) (human) (UniProt O75015).
For experiment [3], the target named is recombinant human Fc gamma receptor CD32a 131H (human) (UniProt P12318).
In experiment [4] the target is recombinant human Fc gamma receptor CD32a 131R (human) (UniProt P12318).
Experiment [5] concerns the target recombinant human Fc gamma receptor CD32b/c (human) (UniProt P31994).
Experiment [6] addresses recombinant human Fc gamma receptor CD64 (FcRγI) (human) (UniProt P12314).
Experiment [7] concerns the target CD20 Lipoparticles (UniProt P11836).

Some results are limits rather than exact numbers.

recombinant human Fc gamma receptor CD16b (FcRγIIIb) (human), sequence (O75015 17-200 limits assumed): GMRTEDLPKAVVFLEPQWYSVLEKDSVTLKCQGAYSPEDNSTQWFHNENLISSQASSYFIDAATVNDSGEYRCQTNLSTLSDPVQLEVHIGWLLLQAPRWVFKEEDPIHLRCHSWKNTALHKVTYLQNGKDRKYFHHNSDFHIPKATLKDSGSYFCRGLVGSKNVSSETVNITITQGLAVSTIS
recombinant human Fc gamma receptor CD32a 131H (human), sequence (P12318 36-218): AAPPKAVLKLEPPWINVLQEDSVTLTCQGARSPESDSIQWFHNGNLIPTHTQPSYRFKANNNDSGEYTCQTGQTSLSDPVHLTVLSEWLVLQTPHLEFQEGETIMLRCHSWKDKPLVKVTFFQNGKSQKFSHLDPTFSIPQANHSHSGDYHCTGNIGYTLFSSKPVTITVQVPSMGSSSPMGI
CD20 Lipoparticles, sequence (P11836 whole entry): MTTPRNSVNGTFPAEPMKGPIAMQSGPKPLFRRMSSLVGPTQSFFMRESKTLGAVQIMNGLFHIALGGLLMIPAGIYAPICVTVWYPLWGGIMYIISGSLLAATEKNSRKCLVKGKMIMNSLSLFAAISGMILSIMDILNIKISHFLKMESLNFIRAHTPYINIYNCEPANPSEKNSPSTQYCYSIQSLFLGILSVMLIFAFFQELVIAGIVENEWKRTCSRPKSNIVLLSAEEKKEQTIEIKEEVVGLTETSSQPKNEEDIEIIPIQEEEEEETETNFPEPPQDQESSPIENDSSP
recombinant human Fc gamma receptor CD32a 131R (human), sequence (P12318 36-218 H167R): as the sequence (P12318 36-218) above, with H132R counted along it
recombinant human Fc gamma receptor CD64 (FcRγI) (human), sequence (P12314 16-288 limits assumed): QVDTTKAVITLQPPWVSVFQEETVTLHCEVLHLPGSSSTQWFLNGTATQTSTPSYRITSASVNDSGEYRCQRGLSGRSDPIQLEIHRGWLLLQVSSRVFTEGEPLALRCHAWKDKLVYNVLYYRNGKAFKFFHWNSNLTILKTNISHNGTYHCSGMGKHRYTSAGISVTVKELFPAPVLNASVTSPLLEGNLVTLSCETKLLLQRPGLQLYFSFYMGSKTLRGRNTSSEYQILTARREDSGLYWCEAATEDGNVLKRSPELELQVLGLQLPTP
recombinant human Fc gamma receptor CD32b/c (human), sequence (P31994 46-217): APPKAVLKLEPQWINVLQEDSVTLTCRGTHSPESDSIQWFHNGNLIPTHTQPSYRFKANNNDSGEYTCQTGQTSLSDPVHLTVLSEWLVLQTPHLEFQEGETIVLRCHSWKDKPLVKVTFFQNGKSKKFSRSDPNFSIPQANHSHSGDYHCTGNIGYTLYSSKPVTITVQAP
recombinant human Fc gamma receptor CD16a 158V (FcRγIIIa) (human), sequence (P08637 17-208 F176V limits assumed): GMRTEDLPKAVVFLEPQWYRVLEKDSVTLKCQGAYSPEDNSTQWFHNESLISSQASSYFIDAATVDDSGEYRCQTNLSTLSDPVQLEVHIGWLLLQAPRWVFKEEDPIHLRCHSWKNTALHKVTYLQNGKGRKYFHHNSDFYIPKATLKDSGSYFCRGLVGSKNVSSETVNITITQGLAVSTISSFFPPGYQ

Turning to Rituxan (antibody), the dissociation constant (Kd) in experiment [1] stood at 715 nM; in experiment [2], 1530 nM; in experiment [3], 892 nM; in experiment [4], 1250 nM; in experiment [5], 1520 nM; in experiment [6] it was 52.8 nM. In addition, the dissociation constant Kd in experiment [7] is less than 0.001 nM.

A word on the Kd: it is the constant that tells how readily two partners part at equilibrium.

Values taken from patent US20230220115A1.
